Measurements: paper PMC3985851 (Biochemistry, 2014)
Values belong to the binder of their own block, whether it stands above or below them.

Assays:
micro(μ)-plasmin = micro(μ)-plasmin (human, UniProt P00747 561-580; P00747 581-810); assay: SEC
Glu-plasminogen = assay: SPR
[1] = target: tissue plasminogen activator (tPA, Alteplase); assay: SPR

Glu-plasminogen, sequence (P00747 20-810): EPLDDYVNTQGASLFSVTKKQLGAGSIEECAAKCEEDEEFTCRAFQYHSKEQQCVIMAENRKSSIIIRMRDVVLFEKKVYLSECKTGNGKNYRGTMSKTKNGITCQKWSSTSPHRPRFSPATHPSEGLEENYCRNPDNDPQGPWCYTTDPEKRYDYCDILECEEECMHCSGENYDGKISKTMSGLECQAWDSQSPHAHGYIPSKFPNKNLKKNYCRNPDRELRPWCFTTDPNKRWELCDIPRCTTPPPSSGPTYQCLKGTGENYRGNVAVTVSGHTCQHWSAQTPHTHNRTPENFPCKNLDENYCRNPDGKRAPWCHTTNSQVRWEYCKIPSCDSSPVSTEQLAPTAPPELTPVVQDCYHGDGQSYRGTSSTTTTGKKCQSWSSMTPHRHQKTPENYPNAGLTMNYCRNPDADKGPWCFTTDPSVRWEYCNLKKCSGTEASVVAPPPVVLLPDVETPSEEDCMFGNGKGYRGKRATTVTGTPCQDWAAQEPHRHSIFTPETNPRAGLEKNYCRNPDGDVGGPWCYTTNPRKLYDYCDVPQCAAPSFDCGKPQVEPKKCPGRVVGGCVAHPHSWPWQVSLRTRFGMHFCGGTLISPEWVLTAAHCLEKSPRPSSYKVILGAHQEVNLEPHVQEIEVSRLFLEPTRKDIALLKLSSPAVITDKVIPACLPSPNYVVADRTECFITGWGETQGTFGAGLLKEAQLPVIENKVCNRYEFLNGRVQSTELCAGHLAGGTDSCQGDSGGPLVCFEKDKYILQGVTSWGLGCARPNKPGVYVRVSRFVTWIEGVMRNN
micro(μ)-plasmin, sequence (P00747 561-580, chain 1 of 2): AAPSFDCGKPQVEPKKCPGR
micro(μ)-plasmin, sequence (P00747 581-810, chain 2 of 2): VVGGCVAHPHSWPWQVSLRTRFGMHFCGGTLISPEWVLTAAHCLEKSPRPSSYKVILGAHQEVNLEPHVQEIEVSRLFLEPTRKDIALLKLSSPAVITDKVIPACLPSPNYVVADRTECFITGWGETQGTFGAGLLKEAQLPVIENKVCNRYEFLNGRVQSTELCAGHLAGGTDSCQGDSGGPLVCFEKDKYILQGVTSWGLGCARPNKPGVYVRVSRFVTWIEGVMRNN

binding result (micro(μ)-plasmin): binds
RU at 1 μM analyte (Glu-plasminogen): 12 RU
B1: KD1_(L17R)-VT (Kunitz domain 1 of tissue factor pathway inhibitor-2, Leu17Arg, with C-terminal valine) (domain or fragment, human)
chain: GSHMDAAQEPTGNNAEICLLPLDYGPCRARLLRYYYDRYTQSCRQFLYGGCEGNANNFYTWEACDDACWRIEKVPKV

binding result (micro(μ)-plasmin): binds
Kd [1]: 210 nM
RU at 1 μM analyte [1]: 155 RU
koff [1]: 0.00019 s⁻¹
kon [1]: 910 M⁻¹ s⁻¹
Kd (Glu-plasminogen): 280 nM
RU at 1 μM analyte (Glu-plasminogen): 86 RU
koff (Glu-plasminogen): 0.00031 s⁻¹
kon (Glu-plasminogen): 1100 M⁻¹ s⁻¹
B2: KD1_(L17R)-KT (Kunitz domain 1 of tissue factor pathway inhibitor-2, Leu17Arg, with C-terminal lysine) (domain or fragment, human, UniProt P48307 30-94, looked up)
chain: GNNAEICLLPLDYGPCRARLLRYYYDRYTQSCRQFLYGGCEGNANNFYTWEACDDACWRIEKVPK
